In IntAct's records for PubMed 17409324:

B1: Vang-like protein 1 (Homo sapiens), Q8TAA9 (parent)
chain: MDTESTYSGYSYYSSHSKKSHRQGERTRERHKSPRNKDGRGSEKSVTIQPPTGEPLLGNDSTRTEEVQDDNWGETTTAITGTSEHSISQEDIARISKDMEDSVGLDCKRYLGLTVASFLGLLVFLTPIAFILLPPILWRDELEPCGTICEGLFISMAFKLLILLIGTWALFFRKRRADMPRVFVFRALLLVLIFLFVVSYWLFYGVRILDSRDRNYQGIVQYAVSLVDALLFIHYLAIVLLELRQLQPMFTLQVVRSTDGESRFYSLGHLSIQRAALVVLENYYKDFTIYNPNLLTASKFRAAKHMAGLKVYNVDGPSNNATGQSRAMIAAAARRRDSSHNELYYEEAEHERRVKKRKARLVVAVEEAFIHIQRLQAEEQQKAPGEVMDPREAAQAIFPSMARALQKYLRITRQQNYHSMESILQHLAFCITNGMTPKAFLERYLSAGPTLQYDKDRWLSTQWRLVSDEAVTNGLRDGIVFVLKCLDFSLVVNVKKIPFIILSEEFIDPKSHKFVLRLQSETSV
partner: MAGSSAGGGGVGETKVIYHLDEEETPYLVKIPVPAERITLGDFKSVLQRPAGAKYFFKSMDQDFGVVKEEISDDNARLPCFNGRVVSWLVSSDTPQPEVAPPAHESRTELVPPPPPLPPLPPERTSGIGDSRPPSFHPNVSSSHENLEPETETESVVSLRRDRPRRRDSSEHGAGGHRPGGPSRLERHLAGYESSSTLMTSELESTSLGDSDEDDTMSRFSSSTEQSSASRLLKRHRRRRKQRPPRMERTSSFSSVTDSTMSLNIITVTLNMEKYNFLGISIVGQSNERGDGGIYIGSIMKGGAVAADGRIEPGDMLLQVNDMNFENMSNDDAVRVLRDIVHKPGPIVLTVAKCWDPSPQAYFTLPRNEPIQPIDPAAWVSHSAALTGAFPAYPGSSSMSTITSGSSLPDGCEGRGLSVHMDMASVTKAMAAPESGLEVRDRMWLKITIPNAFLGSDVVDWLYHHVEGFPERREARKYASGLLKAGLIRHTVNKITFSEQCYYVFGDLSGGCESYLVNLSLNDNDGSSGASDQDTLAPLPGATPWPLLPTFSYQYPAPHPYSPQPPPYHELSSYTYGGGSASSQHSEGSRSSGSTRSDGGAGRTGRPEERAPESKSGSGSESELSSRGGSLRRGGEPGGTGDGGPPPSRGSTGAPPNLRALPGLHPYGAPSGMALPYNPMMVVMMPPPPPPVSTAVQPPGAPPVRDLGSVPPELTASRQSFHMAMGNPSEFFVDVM
B2: Vang-like protein 1 (Homo sapiens), Q8TAA9 (parent)
chain: B1 chain
partner: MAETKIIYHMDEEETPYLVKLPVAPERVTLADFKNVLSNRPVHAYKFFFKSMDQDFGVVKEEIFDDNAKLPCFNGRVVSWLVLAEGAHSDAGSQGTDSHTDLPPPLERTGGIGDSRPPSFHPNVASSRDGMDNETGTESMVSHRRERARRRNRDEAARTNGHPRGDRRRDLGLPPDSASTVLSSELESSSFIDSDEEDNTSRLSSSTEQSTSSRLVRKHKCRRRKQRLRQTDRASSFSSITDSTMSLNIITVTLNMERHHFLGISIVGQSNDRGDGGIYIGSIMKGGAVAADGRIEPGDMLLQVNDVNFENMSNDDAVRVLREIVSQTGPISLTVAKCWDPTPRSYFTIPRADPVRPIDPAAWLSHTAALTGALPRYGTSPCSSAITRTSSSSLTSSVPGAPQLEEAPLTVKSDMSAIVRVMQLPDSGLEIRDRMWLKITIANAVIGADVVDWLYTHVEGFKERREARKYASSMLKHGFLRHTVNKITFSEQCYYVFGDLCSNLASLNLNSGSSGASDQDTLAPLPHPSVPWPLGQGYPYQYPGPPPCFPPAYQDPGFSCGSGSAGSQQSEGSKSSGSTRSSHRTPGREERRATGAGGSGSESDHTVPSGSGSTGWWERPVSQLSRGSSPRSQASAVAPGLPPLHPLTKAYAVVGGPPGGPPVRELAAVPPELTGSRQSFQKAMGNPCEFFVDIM
B3: Vang-like protein 1 (Homo sapiens), Q8TAA9 (parent)
chain: B1 chain
partner: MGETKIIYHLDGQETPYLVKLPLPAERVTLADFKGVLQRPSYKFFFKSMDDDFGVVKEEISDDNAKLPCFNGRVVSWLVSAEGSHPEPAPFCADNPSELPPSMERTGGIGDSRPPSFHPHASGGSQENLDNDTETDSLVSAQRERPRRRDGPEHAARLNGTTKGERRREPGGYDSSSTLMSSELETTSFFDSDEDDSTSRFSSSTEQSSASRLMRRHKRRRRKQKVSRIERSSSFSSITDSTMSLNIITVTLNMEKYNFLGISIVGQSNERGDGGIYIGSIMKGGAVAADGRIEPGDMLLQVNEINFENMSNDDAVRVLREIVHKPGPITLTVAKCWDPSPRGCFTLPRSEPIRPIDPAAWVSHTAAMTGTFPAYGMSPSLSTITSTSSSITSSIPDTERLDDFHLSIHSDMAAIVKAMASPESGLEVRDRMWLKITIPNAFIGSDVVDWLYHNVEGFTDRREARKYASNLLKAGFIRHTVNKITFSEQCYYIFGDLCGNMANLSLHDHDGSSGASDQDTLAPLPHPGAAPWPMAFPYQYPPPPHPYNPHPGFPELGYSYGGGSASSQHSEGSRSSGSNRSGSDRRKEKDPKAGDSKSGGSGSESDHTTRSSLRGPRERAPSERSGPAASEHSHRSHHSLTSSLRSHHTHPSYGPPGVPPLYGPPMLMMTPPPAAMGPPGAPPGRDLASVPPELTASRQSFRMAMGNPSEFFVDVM

Variants of: B1
Details: with dvl2_mouse Dvl2, Q60838

Variant | effect of a mutation on the interaction
R274Q | with no effect
D259E | disrupting interaction strength
M328T | with no effect
V239I | disrupting interaction strength
S467N | decreasing interaction strength

Variants of: B2
Details: with dvl1_mouse Dvl1, P51141

Variant | effect of a mutation on the interaction
D259E | disrupting interaction strength
V239I | disrupting interaction strength
R274Q | with no effect

Next, values leading:

effect of a mutation on the interaction | Variant
disrupting interaction strength | S467N
with no effect | M328T

Variants of: B3
Details: with dvl3_mouse Dvl3, Q61062

Variant | effect of a mutation on the interaction
D259E | disrupting interaction strength
R274Q | with no effect
V239I | disrupting interaction strength

Continued, values first:

effect of a mutation on the interaction | Variant
with no effect | S467N
with no effect | M328T
